Assay: soluble on expression in E. coli; label from the status in PepcDB or PDB records

Sequence	soluble on expression in E. coli
VKKIGILVLITALLAGIIPKSALAEEPKFNYVDAFAKSILFYEANWCGPDAGNNRIKWRGPCHIEDGKDVGLDLTGGFHDCGDHVKFGLPQCASASTLAWAYHEFSDVFIEKGQDEYMLNILKHFCDYFMKCYPEKNKFYYQVGDGDVDHQYWGPPELQSYDRPTYYVATPENPGSDVAGDTAAALALMYLNYKDRDLEYAEKCLAYAKDIYEFGMTYRGNSKGQSYYLPRDYLDELMWGSLWLYVATGEQKYMDNLEKLMVEKRIGDEAGNSFNDNWTQCWDYVLTGVFIKLATLTDKPLYKQIAEDHLDYWQNRIKSTPGGLKYLDSWGVCKYPAAESMVQLVYYKYTGDKRCLDFAKSQIDYILGDNPKKMSYVVGFGDNYPKFPHHRAASGRLEGPPADETKNDPQRHILYGALVGGADINDEYYDDIDKYVYSETGLDYNAGLVGALAGMSKYFGQGQMPEDTPGIEGEPPVYYADAKIYEENESGITVDLNMYNIVTSPPQYESDLSCRYFVDLSEYAGENIDMSKFVTKVYYSPAGATISELKPYDKEKNIYYVEISFPNPVYARTYVQFCIYYYENKLWDSSNDFSYQGIGDTYKTLENIPIYKNGVLVAGKEPSGAGPVEPTPPPKNYVYGDVNGDGKVNSTDCSIVKRYLLKNIEDFPYEYGKEAGDVNGDGKVNSTDYSLLKRFVLRNIDKFPVEQ	not soluble
MSLDVGGSERIPSEMRAWEVTSPAPIDSSPSPIHFVKHPVPVPKTSEVLVRVISCGICHTDLHVAEGDLPVHHPHVIPGHEIIGRVVANGPQAGRFNLGDRIGVPWLRWTCGVCTYCRSGKENLCPNSLYTGWDHDGGYAEYVTVPEGFAYRIPSAFNSVTAAPLLCAGIIGYHAFRRANVPAGGRLGLYGFGGSAHLAAQIAIAQGIEVHVFTRGKDAQRFALELGAASAQGVYDPSPVSLDSSILFAPVGDIVPKALENLAAGGTLALAGIHLTDVPSLNYQNHLFHEKVLTSVESNTRRDGEEFLTLADRLKIHPKTTEYPFEKADEALRHLSHGDMQGACVLRISEGHHHHHH	not soluble
MASINLIKSLKLYKEKIWSFDFSQGILATGSTDRKIKLVSVKYDDFTLIDVLDETAHKKAIRSVAWRPHTSLLAAGSFDSTVSIWAKEESADRTFEMDLLAIIEGHENEVKGVAWSNDGYYLATCSRDKSVWIWETDESGEEYECISVLQEHSQDVKHVIWHPSEALLASSSYDDTVRIWKDYDDDWECVAVLNGHEGTVWSSDFDKTEGVFRLCSGSDDSTVRVWKYMGDDEDDQQEWVCEAILPDVHKRQVYNVAWGFNGLIASVGADGVLAVYEEVDGEWKVFAKRALCHGVYEINVVKWLELNGKTILATGGDDGIVNFWSLEKAA	soluble
MKDAKGIDKQWVILNELASKISKVRPLPEDVYSKLRIANNIITYYLLDEHADFEVLRDAEKEISKIQVILFGLADQDVSKEYLIKMGQALRNEIDLEFPLKQTAFNTEVKRKKGSETIRIKMPVEVQIEVLGELSEHNGVIFELSQDDEQKILVEGVKERITSALKDFSVIWKFQDNLEHHHHHH	not soluble
MGSDKIHHHHHHANQKSEHDHVAKVPKSYLPSGSVMAKEASANLKLSEKLSLIDGQWDSTTDDAASYEMDEQDYQAVATCRKSIEKLYDEKLYPVNLSPDYSNWYTWEAAAKKASDNTFNTYTAYYWIIRFEKYDGTQNHTIWMLEDGTIIMAKAHMKDISDMSEYKEVLQADDESQAENDLSAYKGYFDYSGIDFSKLNLISETTAVEQKNNESYEVLQFLQENEYVYAIHEK	not soluble
MSLNQLFCHPETITIKKAVYYDIAPIPLPTPFKDGTGGVRHASFFKGWMKIYDEDGFCGQGPAGPLMTDFFLPRMLNAPGKSNGEWMEYFWWEIRNFGYQSPYIPEMTNLDWLLLDLLANRAGLPLHRFLGADRDWACVYKGGGSVLLSDEALISDLQRFKDEGYKTTKFKIGGSGPDFSQDIRRLEKARQALGDGFGIAVDANQAWDAKTAFAFAKEAAPLGVAWLEEPVHAYDMDALRELRDLLDEAGIAMEIAMGESVRSYHTHVAYAEHGVDHLQPARLYCIAENMRVREYARRHGCRISTGGFTFQNAALGALYSEDELLEYHQPLNEVLVPYFSLVSEMKDGRFYLPDVPGLPVHLDFERLERDGLLRGIQFYYHKEGHHHHHH	soluble
MGSDKIHHHHHHMAPEDWLRAETQGDIVALVHSHPGGQPYLSDVDRRLQVQSDLPWWLVCAGQVHKFRCVPHLTGRHYKHGVFDCYTLFRDAYHLAGIDMPDFHRDDDWWRHGDNLYLDNLETTGFYRVSAASAQPGDVLICCFGSSVPNHAAIYCGDGELLHHIPEQLSKRERYTDKWQRRTHSIWRHRAWRASAFTGICNDFAAASACR	not soluble
RQDARERERLAVLAASRTALAPLDGPPQVLWTSDREEVLWASARTPDGLLVVPGTQGERVVRALDPATGDVVWERELLPPRDTAPAPNEDVAGASCVGHGAAGDLLACLASDAMTVFDERTTDIRYVAPTVVRLVLLDPQDGTVVADLSDAVAGTGTAPAYVALGDLVVVSSVVDDATRVVAVAPDGSVAWRTEVPPSTRPAPGLPGLRRADVLALGDHLVVATAEEMRLLDATGATVRTVPLADDESLGGAEGTTAFARTGLDRVTLMQVGSEVVARGEGTKVVRADHVGELPGGRVRADVDDGSDPRLVLTSDAEGLHGWDAEGVRRWSADVQVTRSAMVLAGRVHATTRADALVTFDARTGAELWRRDGLVLDQAPLADGRVLLVRERGADGAALDLVALDVADGEVAWRTPWPEGVDQLQAVFGVIVGLSYDVEGEDWSVTALG	not soluble
MYHHGFHYYSTNNSHSYSRTRNPPKSWNLGPHELGSSTDPENRAMQESIINSVSEQTLQSWIDFREEINKKNLLLRNKLKIPSEKIDDKYHTFPEKKQSDYADAEIYAGSDASQPSRNEYDRSKYVLNRKVRCAPTEIITDSSQSPGASPSSDQIFIDDSQPSTTKRRWVISEPDDNSDKHVSSSENHQQREKIISPTEKTLQKSTSSNSSPTLKLFVTVPSSSNQECILHKYGHCIAPQICPFAHDGVVRKLEKKTVTAPFWQRKLPNISLCPGYPTLKCWDHKCGKRHILYPSDNI	not soluble
MFLQHNNQLICNLEKMGLTENEAKAYVGLVSLGEATAREVHELTNVPRAKIYEVLKVLAKRGYLEVRQGSPTYFRAVDPKQVIGKIKDEFINCAIETLDQLNELSYELPRTSPVWCIQSEWGIKNRIREILNGVKEELIVFSSSPRFFQEFEAELKKLEKTCQLTFIISEPEKFESFPFEFRETTKEFREFLNNIVIDGIRYDEEFFMIADGKESIGVHSAGDKREAVVIKLPVVCYLQKMIYDRVLEPSFVKKNRKSA	not soluble
MGSDKIHHHHHHMKVLNLLSAGGIGGIEQLCSNIAKYANYDNTFCFMFEDGQIYKEMKKSGADVISFAECSSKKISKKRWESLCELAEKADIIVTHHCTIALHIYYCALKKRFKNKKFVMTIHSCFDPELNYNYGSWIKNKIAKWNIEEALKISDKIIFVSEAGRRSYLDNFNIDVTKTKVIYNGVEVSAISIDSIKLENNYTRITYIGRVEKIKGLDLFVCALKKLLNDDSNIKVWIIGDGSFRNELEMLVQKLDLTGVIEFTGAKRNIGDYLRKTDLFIYPSTCQEVFGISIVEAMSYGVPCVANNVGGIPEIIENDYNGFITSKTNDDELYKCMYKFIKLDPKLITQMRNNCLLTAEKFSINCTIDNLEKTLKGMM	not soluble
MGSDKIHHHHHHMARKDKIVTPSVTQKLQSLGYNVADWDDSKTTSKLTDEIITVLKKASKSENGNEGYPDRIYCNKKKKLLILVEEKPTMQEHNIESIKSGCIAGLKWYLKQFLSEKFSSWKIIGIAVSGDLSDQYKHKFSCFLIDKQKISLAENVNNFLKENEFIALFNNIDEEKAISKVTKVSKKINKLLRSIDSQKRPIILAALMISLYRSEKYDNNFPDIYENYNSEQILNNIYPTVKNILTAEDVPEEKLKSLELELNSINQDPSLKNTNILKEILKELDENIIQLFNDTFSTTSNYDIMGKFYEEFLRFAGVSNVKKGIVLTPRHIATLFTKLIPFKKNDKILDLCCGTGAFLIAGMNKLLSLKGIDAQNVKSNQLLGFEINPTMYICAISNMLFRGDGKSKIYNMDSINDDKVNKIISESAPTIGFINPPYSGKENKEDPTPKEITFLKKC	not soluble
MGSDKIHHHHHHMFIGFDYGTANCSVAIMRDGHPQLLTMENNSALLPSMLCAPTREAVSEWLYRHHDVPATDEETQALLRRAIRYNREEDIEVGAQSVQFGLASLAHYIDDPQEVWFVKSPKSFLGASGLKPQQVALFEDLVCAMMVHIRHTAHSQLPEAITQAVIGRPINFQGLGGDDANRQAQGILERAAKRAGFQEVVFQYEPVAAGLDYEATLREEKRVLVVDIGGGTTDCSMLLMGPQWRQRADRENSLLGHSGCRVGGNDLDIALAFKNLMPLLGMGGETEKGIALPVLPWWNAVAINDVPAQSDFYSSANGRLLNDLVRNAREADKVALLLKVWRQRLSYRLVRCAEESKIALSGQADVTARLPFISDDLAVAISQQGLEAALDQPLTRILEQVQLALDSAQEKPDVIYLTGGSARSPLIKKALSEQLPGIPVAGGDDFGSVTAGLARWAEVVFR	not soluble
MGIGKEIRLERIMNRETRKTIIVPMDHGVSSGPIEGIVNIREAVEKVAEGGANAVVLHKGMVRAGHRGRGRDIGLIVHLSASTDLSPRKNDKVLVCTVEEAIRLGADAVSIHVNIGAEGEREMLKDFGYVSKVCEEWQMPLLAMVYGRGPKIENQYDPKVVAHCARVGAELGADIVKVPYTGDPETFKLAIEGSPIPVVIAGGPKMKSEREVLEMVQGAMQAGAAGLSIGRNIFQAKDPAKMVRAMSLIVHEGKSVEEAFEILK	not soluble
SVDDSKYQCVKLNDGHFMPVLGFGTYAPAEVPKSKALEAVKLAIEAGFHHIDSAHVYNNEEQVGLAIRSKIADGSVKREDIFYTSKLWSNSHRPELVRPALERSLKNLQLDYVDLYLIHFPVSVKPGEEVIPKDENGKILFDTVDLCATWEAMEKCKDAGLAKSIGVSNFNHRLLEMILNKPGLKYKPVCNQVECHPYFNQRKLLDFCKSKDIVLVAYSALGSHREEPWVDPNSPVLLEDPVLCALAKKHKRTPALIALRYQLQRGVVVLAKSYNEQRIRQNVQVFEFQLTSEEMKAIDGLNRNVRYLTLDIFAGPPNYPFSDEY	soluble
MAHHHHHHMSEALTPPDSWSHGHPDVNAELKLLRGAVAQALVEARQSSDFCRRIQHDISEYFQSEQRRRVQSGDSIESEQFIPNVMASVDGHLAEFESFIIGRVREELENKVDKDLSEKFDSYRMQLEHLRQQEEEQEARLRFILEDAVKMNCELRNEMKWCASELWDRVSAMEEKLKFMATRTHTNAGGKDVMDLGLPNALREVIGILTLLSEGLEVERELHNEERQRWMSLMSRAVEKIRLLGERDEALEANLQELRQVAAAIQHRFGEFSGFVVDFWHRLEMMGSPSVAVEDAACEGSLSMYSKAGICAKKQMDDFMKELHEVGVALRALQVEHVGFKDILDSNTVNITEIRRNVEALAVGAKLIAEERERIDREESSLDLQYLIRSTPRDGNECEGSTGTPRRGNLSLRKQWQVAHLPTLELLHGKICNIPISHAFRLWAAWASGRRQLRRDKTMVHEPQEDPDTNSLGSRK	not soluble
MGSDKIHHHHHHMNKHIASMLLGALLLNVGCSAIMSEKGFITQDKQVTQFNTEYIEKLAQSLPQHMVNQISIDGDEQVSLKGLFIDNPNSHTLVFFIQGNGMKVDPDSLAVLLTLSQLGTDIAIFDRRGLGASNGQATIANLLTDAIQELTFIRHTYQPDKVIVHGYSLGSFIAAQLVKNQAADALVMQGSATNVDDWIATKIPWYMPFLTVETPESFKLVDNQEVVSKFYQGPLMVIGAEKDDQVPAELSEKLFLASQSKIKSLIIVPKANHGEMLNSAKTMQAYREFLARI	not soluble
